Results: the DeepSol protein solubility set

Test: soluble on expression in E. coli; label from the status in PepcDB or PDB records

Sequence	soluble on expression in E. coli
MSLNISTGLLIVESPTKAKTIAKMFSRPSVRIRNKVPVYETIIVDGNQIYVLDIVASKGHIVDLTLEDIGYYGIKVEDDGTIKPYYDLIKKCLDCNKIFSSASDKCPYCGSANLQSAQTTINLLRELALSVDKVFIASDPDTEGEKIAYDLASFLSPYNSNVYRVVYHEITKKAILEALRNPKKINTNLVMSQIVRRIEDRWIGFTLSNLLKTKFNGHNHGAGRVQTPVLGWIVNKTIKYKSAMGHVVYIDIAGYSIKKYFSEKRKVEEYINNLQVARIEKISEEKILLSPLPPFTTDTLLIEANMKYKLPANLVMKIAQDLFEAGLITYHRTDSTHISSVGIEIAKEYLQKQALIKEFVPRSWESSEEGAHEAIRPTRAIDVNELIQEIEENPYKYSIRFSKLHLLIYDLIFKRFIASQMSHAVGTKSRYLIKLGKDDNVDVELLSNAEGGFIKVYPVKVYNLPVGEIQPKVNITKGSSEQLLSYSDVISLMKSKGIGRPSTYAKTIENLMKHGYIVSSKRKSYLIATNRGISVYQFLSSKFYDLVSESTTSRLMTKLDDIALSKLNASTVLLEIFSEISTLVNPLKSEEGHHHHHH	soluble
SSEDLAKQLASYKAQLQQVEAALSGNGENEDLLKLKKDLQEVIELTKDLLSTQPSETLASSDSFASTQPTHSWKVGDKCMAVWSEDGQCYEAEIEEIDEENGTAAITFAGYGNAEVTPLLNLKPVEEGRKAKEDSGNKPMSKKEMIAQQREYKKKKALKKAQRIKELEQEREDQKVKWQQFNNRAYSKNKKGQVKRSIFASPESVTGKVGVGTCGIADKPMTQYQDTSKYNVRHLMPQ	soluble
MNAMERENTVKSVRRALQIIEIVSTKKDGLGVTEIAKQMDINKSSVYRILTTLAQYGYIEQHPETERYKLGYKFLELSSKLLDSIDLRQEAKPYLRELEKETNEVIHLVVYDQGEVIYIEKLEGTETLRMHSKVGKRAPMHCTAVGKAILAHLPPAVAAEIIDRKGLPKHTDWTITDREAFFRELETVRQNGYALDLEENEYGIRCVAVPIFDYTGGVVAAISVSGPTIRMTDDRITSLTVRMRQIGKELSARLGYRGAHSVQL	soluble
MPLTLNQLAELSGRASEHVLAEEVEETGTPAEEILARLRERLAVMRDSVRRGLASDAPSVAGLVGKNAKTLWEAPDPLQDPLLKRVQAYAMAVNEENARMGRIVAAPTAGSAGTLPGALLGVADHLGIPDEELLMPLVLAGGVAKMIGRVIHIAGASGGCQAEIGSSAAMAAAAVTELLGGTPEACAHAAALALQNTLGLVCDPVGGFVEVPCVMRNGFYAVHAVSAASMALAGIRSVIPPDEVVLAMAGIGRLLPLELKETGLGGLADTPTGRRLAEEALKKT	soluble
MGSMSMNAEQTVAELIARSNRLGSDPKNTNYAGGNTSAKGTDTDPVTGQPVELLWVKGSGGDLGTLTENGLAVLRLDRMRALVDVYPGVEREDEMVAAFDYCLHGRGGAAPSIDTAMHGLVDAAHVDHLHPDSGIALATAADGEALTKQIFGDRVVWVPWRRPGFQLGLDIADIKRRNPQAIGTILGGHGITAWGSTSAEAEAHSLEIIETAERYIAENGLEHHHHHH	soluble
MGSDKIHHHHHHMRRADRLFQIVQILRHRRLTTAKQLAERLEVSSRTIYRDIQDLCLSGIPIEGEAGVGYLLRQEVNVPPLMFNEQELEAIQVGMRMVQAQGGHELASAAKQAMIKVEAVLPERLKAYQSLMFAPDFYSEGQLFSFLDLLRRTSREREYILLSYQDGKQSSSERQVRPLALYYWQGVWTLLAWCELRGDFRNFRVDRIVGVLPLGSHFQHTPGQEMPDYIAMMQAQYGEC	not soluble
MSLTTIDPRSELVDGRRRAGARVDAVGAAALLSAAARVGVVCHVHPDADTIGAGLALALVLDGCGKRVEVSFAAPATLPESLRSLPGCHLLVRPEVMRRDVDLVVTVDIPSVDRLGALGDLTDSGRELLVIDHHASNDLFGTANFIDPSADSTTTMVAEILDAWGKPIDPRVAHCIYAGLATDTGSFRWASVRGYRLAARLVEIGVDNATVSRTLMDSHPFTWLPLLSRVLGSAQLVSEAVGGRGLVYVVVDNREWVAARSEEVESIVDIVRTTQQAEVAAVFKEVEPHRWSVSMRAKTVNLAAVASGFGGGGHRLAAGYTTTGSIDDAVASLRAALGEGHHHHHH	soluble
RSDSMILMTVNPKTKKTTMMSLERDILTRIESGNGQAHEAKLNSAYADGGAELAIETIQKMMNIHIDRYVMVNMRGLQKLVDAVGGITVNNILGFPISISDQEEFNTISIGVGEQHIGGEEALVYARMRYQDPEGDYGRQKRQREVIQKVMEKALS	not soluble
